Assay: soluble fraction after stress (log2 fold change); higher = more stays soluble; pooled small domains, quantitative proteomics
Settings: stress: pH 4
Summary of the method: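 Custom libraries of small protein domains were pooled and exposed to pH 4. High-throughput quantitative proteomics then measured the log2 fold change in the amount of each domain still soluble, with higher values meaning more stayed soluble. This soluble-fraction fold change stands for aggregation propensity.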

Sequence	soluble fraction (log2)
HMGYPYDTVTTAKVNLRAKRSTSSDILKKIPEGATVTVKGVTGTFASVDYNGTSGYVKVDYLV	-0.196
HMREIRIIAEEGHGRLDAFLAGREELGLSRSRIKGLIEEGQVTLNGAVPKAKQPVSPGDEIVVSVPD	-0.0246
HMGSNTLEDAYKVLGITPDATDDEVRKAYKKMVIQHHPDKVANLGEDVKKAATIKLQEINNAKEIIFKARN	0.192
HMWSLLVILQLREGGQRFSQLQRAIPDISQRMLTQTLRKLERDGLVSRKVTPSTPPRVDYAITELGH	-0.556
HMEEKKYEVGDVVSFNYLYKNSFAEGKVSSLIHSGTITRIIDGRPAPYLINRGTGWLSNDLILT	-0.179
HMLNNVDIHKLSEDLLLYKIKIDIKLKNIEDAISTIDYFSNKFPNSDLMPYVIYEKKLIDNI	-0.741
HMLRPEEMIYHEMLDAILDRRLEPGMKLVEEDLAKTFGVSRARIRATFLQLAHDKLINLVPNRGAFVAEP	-0.561
HMEEFAGYINGQPYYGPTHQHRGVKMVGAEHTQRPHPLVWDSVAKSLDNYDNRFQWVNGNLLQVV	0.3
HMQSLDGPSRAAIVLMAIGPDVAGELIKSFSPAEAQKVSSLLATVRSLDREVMIEVLDSFKNITEH	-0.5
HMEKYNIIVDNEDNFRLDKIIALNMKDLSRTMIQEMINRGLVSVNGKITKASYKTKLNDQIEIMIED	-0.171
HMKELTARQIEILDFITNYEWRHGYWPSIRNIQVQFSYKSTNAVMGHLRALERKGAIERIPGQARTFRIH	0.102
HMEKLLTTRQSQIFELAKRKGYWNIPREISITQLAQLTGSSKSTISVMLHAIESKIVDTFYDEI	-0.216
HMNLSDIETWLRELSLEKYALAFSEAEIDFETLPELTEDDLKEVGLPVGPRRKVWGAIQLLRTTD	-1.37
HMWMQKILGNYIAARRKELGMTQANLAEKIHVTDKAVSRWERGVGLPDIENLEALAKALEVSLVSLMQGKT	0.22
HMLLGPDALTNRELDVLALLERRLSNKEIGALLYISPRTVKRHTINIYQKLHVNNRRAAVAQAKALGLMPD	-0.489
HMGYDDVIVINGKNETYGFPTKVEDDPVLSLVIKGDRSIDYAEERRLFYVAMTRTKNRVFFVAP	-0.803
HMLQYSQEIEEAQKILQNLGLYKGEIDGINGVNTKSAIKEFQRKSGLIIDGILGPNTTSALSKGAESYITV	0.0398
HMNVDSLPGEKAVVIKTIDNLRGTGQAVVNGLEWSAKSKDETIIDEGKVVRIVAVEGVKLVVEEE	-0.252
HMSQLDITEARIVVSGGLGMQGPENFKLLEELAKVLGGAVGASRPVVDNGWREYSNQVGQTGKIVAPELYV	-0.751

Sequence	soluble fraction (log2)
HMNTKQRTAVMRILKQSSDPVSADDVFAALKDEYPSLALSTVYRNLERFADESMVKKDVWSDGIVRYSLAD	-0.471
HMPYEHQRAVGALIRRLREQQGWSQRALADWVHMDQSAVSRVETGQRSVTAEELGRFADALHVSTDALVR	0.059
HMDKIYVYTTRGQVIELPRGSTAIDFAYKIQTDIGNMIIAAIVNDKLVDANYVLHNKDRVKIVTS	-0.725
HMDTIAEFIAELTPLEQKVFHVYYEKGQSLKDTAQQAEITSTSARGALDRIRAKGRHFHLAVILFIG	-1.22
HMSYFIFDGVLNLGKQYELKGEESSHITKSRRLRPGDSFLIQDQEGQRFEAILKSFDRNSLIFTPHKPTA	0.043
HMPINPKVKQIYDTLKDGGADVGSEKEFNDYFFAKGKDGYNNRKEVFNTLREGGADAGKSYEEFAGWLGL	0.206
HMPNLAAAIGARVTIRLREASGGFRDIVGTLQRFGDGVNELLNSKGQIISFSEDEIAIWREIK	-0.326
HMKQTDQELAEMLRFRAAQRGLLMSDEVVNYVMTRVERSAKSLIMLLDRIDRAALAQARPVTIPLINEL	-0.606
HMATTTEPTSPPAATASLEAKINWLFLIFRNKKTVTASEQKFHAEDASTVVGKETLTDDGTTMTKGETAAG	-0.437
HMDEPADVAIFDGFRQMSEDELKKLYESLNLAMTFKDFLHIQNYFKNEENREPSVTEIRVLDTYWSDH	-0.321
HMSMDYYSTLGVSKTASASDIKKAYRKLAMANHPDKGGDSAKFAKITEAYDVLKDPQKRNNYDQFGTA	0.399
HMSGRIWTDNYGRTIEADVIKVNINRTVLLEFTDKKTKTVSFDTFISKDIQYLEYLLTRRNRGKL	-1.14
HMTKTRTEILEYLKQNWSVTVSASDIKKHLEEKEIKANTTTIYRYLDKLLAEHVIIKYADAGSERAVYQYS	-0.687
HMTSVAGIERFLASGAIKGMGAATAKLIVEHFGADTLNMLDMYPERLTEIKGIGPKKATAIIEGYRELS	-0.595
HMELDFLRLQIITGIHSGRLSNNEILMMYDTYSQKGGNSYVSRIVNDYVDENNIKEEGKRNARK	-0.636
HMAPPTAEFFAHLPAEALSAVRRSVEEGNARGIDEAILRVETLDGEAGRVLRGLAARYEYGRILELTQR	-0.0842
HMSASSEALKTAVRKVLLNNRMTQDRMARDAGLSGSALSQWLHGKYQGDVPALEGRLAAWLADTQAS	0.132
HMVKPQANTIYKEYIKYRANLQNKNEFLSFSEYAKQKHNLEQMSEIMVDANLKEEMLETLKEMS	0.0548
HMASELVSADEKYSGLVSYLLGRVVVVDQIDHAIALAKKYRYSLRIVTLDGELLSPGGSMTGGAFKNS	0.2

Reference: the domain aggregation screens of Martell et al. (2025)
